# Reference: the DeepSol protein solubility set
# Experiment: soluble on expression in E. coli; label from the status in PepcDB or PDB records
row,Sequence,soluble on expression in E. coli
1,MGSDKIHHHHHHMSRTITIDPVTRIEGHATITIRLNDAGAVADARFHVTEFRGFERICIGRSIWEMPGITARICGICPVSHSISAARAGDAILGVEIPPAAVHLRRIANLASLIQSHALSFFHLSAADLLMGMDEEPSRRNLWGLVAHHPEVARGGIRLRQIGQKIVSDVAGESIHPSWAVPGGVREPLSPEGRDRIAALLPEGLAIVRGALGMLDGIYARHEAEITAYGDFPSLFAGLTASDGGLEHYDGSLRFTDSAGVHVDELSPEHYAQAVTERAEPWSYMTFPYYHPHGDREGGGMFRVGPLARLNICDRAGTPEADRELAAFRQVRGAGGMVTGSFHYHHARLIEILHALERIGMLLDEPDILDRHVRSEAGVNRPAGVGFCEAPRGTLFHDYEVDDDGIVSRVNLLIATGMNNLAINRTIRQVAAEFIRGGEFTEGILNRIEHGVRAYDPCLSCATHAYGRMPLRVMLLGPDGTVLDEAKRGR,not soluble
2,IRSFATHAQLPISIVNREDDAFLNPNFRFIDHSIIGKNVPVADQSFRVGCSCASDEECMYSTCQCLDEMAPDSDEEADPYTRKKRFAYYSQGAKKGLLRDRVLQSQEPIYECHQGCACSKDCPNRVVERGRTVPLQIFRTKDRGWGVKCPVNIKRGQFVDRYLGEIITSEEADRRRAESTIARRKDVYLFALDKFSDPDSLDPLLAGQPLEVDGEYMSGPTRFINHSCDPNMAIFARVGDHADKHIHDLALFAIKDIPKGTELTFDYVNGLTGLESDAHDPSKISEMTKCLCGTAKCRGYLW,soluble
3,MADYADAVVTQESALTTSPGETVTLTCRSSTGAVTTSNYASWVQEKPDHLFTGLIGGTNNRAPGVPARFSGSLIGDKAALTITGAQTEDEAIYFCALWYSNHWVFGGGTKLTVLGGGGGSGGGGSGGGGSGGGGS,soluble
4,MISLPSGTRIWLVAGVTDMRKSFNGLGEQVQHVLDETPFSGHLFIFRGRRGDTVKILWADADGLCLFTKRLEEGQFIWPAVRDGKVSITRSQLAMLLDKLDWRQPKTFRLNSLTML,not soluble
5,MSLSFDFSPDFNPLAARMRPASVEEYIGQSHLLGEGKPLRQALLAGKVHSMLLWGPPGTGKTTLAELVARYANAHVERISAVTSGVKEIRAAIEQAKNVAQSRGQRTLLFVDEVHRFNKSQQDAFLPFIEDGTVIFIGATTENPSFEVNNALLSRCRVYLIKRLEDDAIGQILAQANSDEARGLGKRGLLLKAELKSAIARLCDGDARKALNLLELMSDLLPDGGEYNLELLSEVAGHQAAGYDKNGDQYYDLISAVHKSIRGSAPDAALYWFCRILEGGGDPLYVARRLLAIASEDIGNADPNAMTVALNAWDCFHRVGPAEGERAIAQAVIYLASAPKSNAVYTAFKAARVLARETGNAPVPNHLRNAPTKLMSELGVGEGYRYAHDEDGAFAAGENYFPEVLQHSRIYQPTARGFEKRIRDKLAHLDALNQQSEGHHHHHH,soluble
6,MGSDKIHHHHHHMRSAAVDYAPSQAERRNFQRVRVKIYGRFMLEDRTEHPCQVVDMSPGNVAFRTDRIGMPGEKVIAYIDHIGRIEGVVTRTLQDGFAMTVIASDRKKDKLAAQLTWLANKHELDLPEDRRHERVAPRNPTSVLQLTDGRQYQCRIIDLSLSGAAIEIDVKPAIGVQVMLGTMRGQIVRHFEDGVAIEFAVIQRPETLDSEFNTPRA,not soluble
7,AGTGVVSVQFNNGSSPASSNSIYARFKVTNTSGSPINLADLKLRYYYTQDADKPLTFWCDHAGYMSGSNYIDATSKVTGSFKAVSPAVTNADHYLEVALNSDAGSLPAGGSIEIQTRFARNDWSNFDQSNDWSYTAAGSYMDWQKISAFVGGTLAYGSTP,soluble
8,MGAFFVGAIWLTAAEAFCPAPKGLLPATVLRVVDGDTLHLKDGRRLRMIGLNAPELAGKGRPAEPFAEAARQRLRQLVAQSGGRVGLLPGRERQDRYGRVLAHVYGVTGINFEARLIAEGLAYRIAVLPNVALASCQKAAENHARRAGLGLWRRSPVLKAQQIHRAGFALFEGRVSRVQRNRGGLWITLQGQVVLRIAPNVLRRFDRRLLSGLSGRRIEARGWVVDRSRQPGRQSAHPRWMLSVTDPSMLGLILEHHHHHH,not soluble
9,MDAVVATQTPAEVFDVVVVGGGPAGATAATDLARAGRRVALLDPEGRPKPCGGAIPPRLMSEFAIPDDLPCAQVSGARALAPSGRVVDMPITGAVVSMVDRAVFDPWLRARAHQAGACRLHGRFEGFDRQEDGALVVLWRPEGAAVANRIVARYVVGADGARSKVAALAVAGAAPPCVAAYHEIIRAPAAPAASAPTPATAAGPAYDPARCDVIYRGDISPDFYGWIFPHGETLSIGSGTAVKGFSLREAVALLRREAGLDGLEVVRREGAPIPLRPRKRWDNGRDVVLIGDAAGVVAPASGEGIYYAMASGKMAAEALGEALAGAGPAALAQVRRRFLKAHGKTFWSLGLLQRFWYRSDRWRESFVAICADRDVQRLVWQSYLTKDLARGNMGAYMRIFFKDVAHLIGIAKSLEHHHHHH,not soluble
10,MERPISEAYFQEAKRHIPGGVSSPVRAFKAVGGTPPFLVRGEGAYVWDADGNRYLDYVMSWGPLILGHAHPKVLARVRETLERGLTFGAPSPLEVALAKKVKRAYPFVDLVRFVNSGTEATMSALRLARGYTGRPYIVKFRGNYHGHADGLLVEAGSGALTLGVPSSAGVPEEYAKLTLVLEYNDPEGLREVLKRRGEEIAAIIFEPVVGNAGVLVPTEDFLKALHEAKAYGVLLIADEVMTGFRLAFGGATELLGLKPDLVTLGKILGGGLPAAAYAGRREIMEKVAPLGPVYQAGTLSGNPLAMAAGLATLELLEENPGYYAYLEDLGARLEAGLKEVLKEKGLPHTVNRVGSMITVFFTEGPVVTFQDARRTDTELFKRFFHGLLDRGIYWPPSNFEAAFLSVAHREEDVEKTLEALRKAL,soluble
11,MGSDKIHHHHHHMKRACVIGAGFGGLALAIRLQSGGVQTTLIEARDKPGGRAYFWEKDGFTFDGGPTVITDPACLEELWALKGHRMADDVELMPVMPFYRLNWADGTNFDYSNDDASLRAEIAKLEPADVAGYDDFLRYSAGVFEEGYVKLGAVPFLDFASMIKAAPALARYQAWRSVYSMVSSFVRNEKLREAFSFHTLLVGGNPMTTSAIYALIHKLEKDGGVWWAKGGTNRLIEGMVTHFRRIGGEVRIGDPVTRVETLGTRVTGVETRSGWSGKFDAVASNADVMHSYRDLLSDNSHAKRRAKSLGKKRFSPSLFVVHFGIEGTWPGIPHHMILFGPRYKGLLDDIYTHGVLPQDFSIYLHHPTVTDPSVAPEGMSTFYALVPVANMGKLPVNWDEVGPILEKRILDEVGRRLIPDIHTRIVTKFHYAPSDFSTDLSAHLGSAFSLEPLLTQSAWFRAHNRDDAISNFYLVGAGTHPGAGIPGVVGSAKATARLMLEDLS,not soluble
12,MGSQFLLSVREFMQTRYYAKKTIEAYLHWITRYIHFHNKKHPSLMGDKEVEEFLTYLAVQGKVATKTQSLALNSLSFLYKEILKTPLSLEIRFQRSQLERKLPVVLTRDEIRRLLEIVDPKHQLPIKLLYGSGLRLMECMRLRVQDIDFDYGAIRIWQGKGGKNRTVTLAKELYPHLKEQIALAKRYYDRDLHQKNYGGVWLPTALKEKYPNAPYEFRWHYLFPSFQLSLDPESDVMRRHHMNETVLQKAVRRSAQEAGIEKTVTCHTLRHSFATHLLEVGADIRTVQEQLGHTDVKTTQIYTHVLDRGASGVLSPLSRL,soluble
13,MGEPVIEAQISAGFDSDSGFRHAFSRLAGQPPSNLRGRELLKVDWLQTPIGVMLAVADLEHHHHHH,not soluble
14,MSVKLRLPQSAYPIFDRIEEMAWARHYQQIVREEKETELADDLEKGLPQHLFESLCIDHLQRHGANKQAISHAFDDDVEFQERMAEHIRYMAETIAHHQVDIDLEDLEHHHHHH,not soluble
15,MSLKLYYCRGACSLVVRIILNDLGLNFQDEEVDLKVKKTAGGDDFFKINPKGAVPTLVLDNGDILTENQVILQYLADTTPGQKLLAAVGESKRYHTLEWLNYISTELHKSLGMFFNPTVSEEIKSKILTPLVMTRFAYTNTRLEKGSYLMGNEFSLPDAYLFVMVSWAKYFKLDLSQFEHLTKFMDLMLARSSVAKSLQQEKLEGHHHHHH,soluble
16,MGSDKIHHHHHHMKLRKQLAQQIVTSIKDVCQQDINFINTKGIIFASTNPKRVGEFHEIGLKVAQTGQMIEVTDQESYFGTQAGINIPFYYNCELLATIGISGNPNQVGKYALLAQKMTRLILKEHELDYLDFGRKNEASIVLHHLVEGRELDYYYLNQFLNQYHLSEKTDYRLLTFEINSQKQKLLLSQSEMSLLNFFDKLDTAIYTFNYPNQYWLLLSDHMFDYYYPNILSKFECEKGLYKVGIGQKSSLSLLKRSYETSILALKALKGQQKVNLVDDLDLELLLTSIDSNIKQYVLNKALVNLSENDKILLNSYFKHNLSLKECSQELFIHKNTVQYRLNKIYESTQLNPRNFKDATLLYLALKSEDINLHKL,not soluble
17,MYVYDEYDQRIVEDRVKQFRDQTRRYLAGELTGEEFRPLRLQNGLYIQRYAPMLRIAVPYGLLSSRQLRKLAQIARDYDKGYAHISTRQNVQFNWPELEDVPEILAELATVQMHAIQTSGNCIRNTTTDQFAGVARDELVDPRPWCEIIRQWSTFHPEFAHLPRKFKIAVNGAVSDRAAIEVHDIGLEAVKNEAGELGFRVSVGGGLGRTPIVGSFINEFLPWQHLLGYLDAILRVYNRYGRRDNKYKARIKILVKALTPEVFAERVEAEWANLKDGPSTLTEAEVQRVAAHFVDPAYKALDDLDESLARLDAEHPGFARWRARNTFAHKKPGYVAVTLSLKPTGTAPGDVTDKQLEAIADLADRYSFGEVRNSHNQNIILADVEQGELFALWGELRELGFATPNVGLLTDIICCPGGDFCSLANAKSIPIAEAIQRRFDNLDYLFDIGDIDLNISGCMNACGHHHVGHIGILGVDKKGAEFYQVSLGGSSARDASLGQILGPSFAQEQMADVIDKIIQVYVERRTEEEPFIDTFRRIGIDPFKERVYAAN,not soluble
18,MGSDKIHHHHHHMSLHSDILVVGAGPAGLSFAAELAGSGLKVTLIERSPLTVLQNPPYDGREIALTHFSREIMQRLGMWDKIPENEIYPLRDAKVLNGRSDYQLHFPQPTEARGEPADCLGYLISNHNIRRAAYEVVSQLDNVSILTDTAVKEVKTSDNEAQVFLENGDILTARLLLAADSRFSQTRRQLGISSDMHDYSRTMFVCRMKHTLSNQHTAYECFHYGRTIALLPLEKRLTNTVITVDTDKINSVQNLSPEELAASVKEQLKGRLGDMELVSSIHHYPLVGMIAKRFYGKRSALIGDAAVGMHPVTAHGFNLGLSSADILAKLILEAEQRGQDIGAASLLEKYSSKHMLHAHPLYHGTNMMLKLFTNETAPAKLLRGLVLRAGNNFPPLKKLITKQLTG,not soluble
19,MEKLVAYKRMPLWNKQTMPEAVQQKHNTKVGTWGKITVLKGALKFIELTEEGEVLAEHLFEAGADNPMAQPQAWHRVEAATDDVEWYLEFYCKPEDYFAKKYNTNPVHSEVLEAMQTVKQGKALDLGCGQGRNSLFLAQQDFDVTAVDQNGLALEILQSIVEQEDLDMPVGLYDINSASIEQEYDFIVSTVVLMFLQADRIPAIIQNMQEKTSVGGYNLIVCAMDTEDYPCSVNFPFTFKEGELADYYKDWELVKYNENPGHLHRRDENGNRIQLRFATLLAKKIK,not soluble
20,VSRDENSWLIDGATPLEEVTRVLDIAYFPDEENYETISGFMMYMLRKIPKKTDSVVYGKYKFEVIDTENFKIDQILVSLVKEQE,not soluble
